From patent US20250269027A1 come the findings set out here.

This test concerns the target Mesothelin (MSLN) expressed on target cells (human) (UniProt Q13421). Put plainly: cell-based or functional assay.

As for m912 benchmark MSLN CAR (scFv), the EC50 (functional sensitivity), Jurkat NFAT-luciferase, MSLN molecules/cell on HEK293 cells (molecules/cell) amounted to 80000.
